The source of these data is patent publication US20200199192A1 (SHIRE NPS PHARMACEUTICALS, published 2020).

Series [1] deals with the molecule itself. Nature of the series: microscale thermophoresis (MST), self-association; MST. As for the experimental part:
Microscale thermophoresis (MST) and nano differential scanning fluorimetry (NanoDSF) were performed to characterize the dimer-monomer transition. MST was used to determine the monomer/dimer equilibrium dissociation constant Kd. MST is based on thermodriven diffusion of molecules while NanoDSF is based on Trp fluorescence and is commonly used for thermostability Tm.

Series [2] concerns the molecule itself. Nature of the series: NanoDSF at room temperature, self-association. The text has this: Only the tryptophan fluorescence from the protein contributes to the signal. If tryptophan is buried or stable, the peak is at 330 nm and if the tryptophan is exposed or flexible, the peak is at 350 nm.
For orientation: DSF heats the sample and reads unfolding from a dye or from intrinsic fluorescence.

In general, Kd refers to the equilibrium constant for the complex coming apart. Higher therefore signals lower affinity. Consider HGDGSFSDEMNTILDNLAARDFINWLIQTKITD (also called Gattex) [teduglutide], for which the Kd in series [1] was found to be 24 µM; in series [2] it was 77 µM.
